The assay concerns the target T1, gp41 HR1 fragment, Ala541 to Leu581 (chain of gp41_(541–665)) (HIV-1 HXB2 group M subtype B, UniProt P04578 541-581).
T1 construct: HIV-1 HXB2 (group M subtype B) envelope glycoprotein, gp41 subunit, residues Ala541 to Leu581 (heptad repeat 1); also called core fragment HR1; source: E. coli Rosetta (DE3), fusion protein; pellets of HR1 and HR2 expressing bacteria mixed before lysis; complex purified (amylose, TEV digestion, Ni2+, anion exchange, SEC); not shown: Flag-tag (DDDDK), N-terminal, kept
Kind of assay: SEC; purified complexes on a Superdex 200 (S200) column in buffer A (0.02 M Tris pH 8.0, 0.1 M NaCl); SDS-PAGE of the peak; the complexes were assembled by mixing bacteria before lysis and co-purified. The conditions noted are these: both partners purified. (In gel filtration, larger molecules generally elute earlier.)

We go through one molecule from publication PMC2865522, “Crystal Structure of HIV-1 gp41 Including Both Fusion Peptide and Membrane Proximal External Regions” (PLoS Pathogens, 2010).

T1 sequence (P04578 541-581): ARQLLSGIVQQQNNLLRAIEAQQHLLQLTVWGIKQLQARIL

B1: gp41 HR2 fragment, Met628 to Lys665 as printed (chain of gp41_(541–665)) (domain or fragment)
chain: MEWDREINNYTSLIHSLIEESQNQQEKNEQELLELDK
notes: HIV-1 HXB2 (group M subtype B) envelope glycoprotein, gp41 subunit, heptad repeat 2; also called core fragment HR2; source: E. coli Rosetta (DE3), fusion protein; pellets of HR1 and HR2 expressing bacteria mixed before lysis (HR2 in excess); complex purified (amylose, TEV digestion, Ni2+, anion exchange, SEC); not shown: Flag-tag (DDDDK), N-terminal, kept
Regarding B1, the binding result was “binds”.
